# Results from US10294487B2, “Methods and compositions involving ALS variants with native substrate preference” (E I DU PONT DE NEMOURS AND COMPANY, priority 2012, dated 2019).
# Columns and labels:
# [1] = tested on: G. max ALS1 protein; assay: Colorimetric ALS kinetic assay (Km, kcat) with pyruvate as substrate; type: biochemical, Glycine max
# Experimental: A survey of known ALS (AcetoLactate Synthase) gene variants (Table 2) was performed, and a number of ALS variants were selected for kinetic evaluation based on breadth and strength of insensitivity to ALS-inhibitor herbicides as well as kinetic activity parameters including the ratio of substrate preferences. The selected ALS gene variants (Table 3) were generated by PCR mediated site-directed mutagenesis. Finnzymes PHUSION® DNA polymerase (Cat. No. F-530S) was used for the PCR reactions, following the instructions for recommended temperatures and cycles in the PHUSION® protocol. Some mutagenesis reactions were assisted by the use of IN-FUSION® enzyme (Clontech Cat. No. 639620) to circularize a linear plasmid with the mutation located within the 15 nucleotide overlapping ends, via recombination following the manufacturer's protocol for primer design and reaction conditions. The ALS genes, beginning with encoded amino acids SISK, (S48 to K51 in the G. max ALS1 protein (SEQ ID NO:1) corresponding to the mature protein N-terminus of the chloroplast localized enzyme), were cloned into the PMAL® E. coli expression vector (New England Biolabs) to express ALS as a fusion protein with a Maltose-Binding Protein (MBP) at the N-terminus with a thrombin site for cleavage and a His-6 tag for affinity purification. All in vitro protein characterization described in the examples was carried out with the isolated proteins after cleavage from the His-MBP fusion partner.
# Km and Kcat determinations for recombinant ALS variants (with respect to pyruvate as the substrate) were performed using a colorimetric assay. ALS assays were carried out in 96-well microplates with 150 ul reaction containing 25 mM potassium phosphate, 0.2 mg/ml BSA, 15 mM MgCl2, 0.7 mM TPP, 28 uM FAD and 0-100 mM sodium pyruvate. Reactions were initiated by the addition of ALS enzyme to a final amount of 0.8 ug/well. Parameters for Km and Vmax were determined by fitting the velocity versus substrate concentration data to a rectangular hyperbola using GraphPad Prism software. Kcat values were determined from Vmax based on protein concentration in the reactions.
# [2] = tested on: G. max ALS1 protein; assay: Substrate specificity ratio (Rf), pyruvate versus 2-ketobutyrate, LC-MS of reduced products; type: biochemical, Glycine max; details: ratio of [pyruvate] to [2-ketobutyrate] giving equal rates of acetolactate and acetohydroxybutyrate formation, 25 mM pyruvate
# Excerpt: The “substrate specificity ratio”, or “Rf”, characterizes the specificity of the ALS enzyme for AHB formation relative to AL formation (Gollop et al. (1989) Biochemistry 28:6310-6317). Rf is the ratio of [pyruvate] to [2-ketobutyrate] that results in equal rates of formation of acetolactate and acetohydroxybutyrate. Rf is a constant at all substrate concentrations. The substrate specificity ratio is ˜114 for the wild type Glycine max ALS1 enzyme (SEQ ID NO:1) compared to ˜3 for the highly resistant allele (HRA) double mutant variant (SEQ ID NO: 10) of the Glycine max ALS1. The soybean HRA sequence is disclosed, for example, in WO2007/024782, herein incorporated by reference.
# Substrate preference was determined using the assay described in Example 3; however, the assay was conducted using a constant concentration of pyruvate (25 mM) and varying concentrations of the second substrate, 2-ketobutyrate. Each reaction involving a specific ratio of pyruvate to 2-ketobutyrate, after a set period of time, was quenched by addition of sodium borohydride (7-fold excess) to form the reduced adducts of the products of the two substrates namely; reduced acetolactate for the reaction with pyruvate and reduced aceto hydroxybutyrate for the 2-ketobutyrate reaction. The relative amounts of the two reduced products was determined by first, chromatographic separation using a 4.6×250 mm dC18 column (Atlantis) equilibrated with a 0.1% formic acid solution and subsequent elution using a methanol gradient at 0.7 ml/min, followed by detection using a Thermo FINNIGAN® LTQ® Mass Spectrometer (MS). The products of the two reactions were quantified by integration of the MS signals. The % of the amount of each of the reduced products was then plotted versus the concentration of 2-ketobutyrate. As the 2-ketobutyrate amount increased there was a consequent increase in reduced acetohydroxybutyrate (AHB) and decrease in reduced acetolactate (AL). […] The substrate specificity ratio was ˜114 for the wild type enzyme compared to 3 for the highly resistant allele (HRA) double mutant ALS variant (SEQ ID NO: 10).
# [3] = tested on: soybean embryogenic suspension tissue; assay: Chlorsulfuron selectable marker activity in soybean transformation; type: cell-based; details: chlorsulfuron selection 50 then 100 ppb; SAMS (low) or UBQ10 (high) expression promoter as in label
# Excerpt: Soybean plants expressing ALS variant transgenes were produced using the method of particle gun bombardment (Klein et al. (1987) Nature 327:70-73, U.S. Pat. No. 4,945,050) using a DuPont BIOLISTIC® PDS1000/He instrument. The vectors used to test modified ALS genes as selectable markers in soybean transformation were composed of the S-adenosylmethionine synthase (SAMS) promoter (U.S. Pat. No. 7,741,537) from soybean, or the polyubiquitin 10 (AT-UBQ10) promoter (DuPont) from Arabidopsis, driving the modified ALS coding sequence followed by the native soybean ALS terminator region. The selection agent used during the transformation process was chlorsulfuron. Bombardments were carried out with linear DNA fragments purified away from any bacterial vector DNA. Bombarded soybean embryogenic suspension tissue was cultured for one week in the absence of chlorsulfuron, and then placed in liquid selection medium for 6 weeks. Selection in liquid cultures was at 50 parts per billion (ppb) chlorsulfuron for three weeks, then elevated to 100 ppb. Putative transgenic suspension tissue was sampled for PCR analysis to confirm the presence of the modified ALS gene. Putative transgenic suspension culture tissue was maintained in selection medium for 3 weeks to obtain enough tissue for plant regeneration. […]
molecule,measurement,setting,value
"GM-ALS1: Glycine Max ALS1 protein, wild type (protein, GLYCINE MAX, Glycine Max ALS1 protein, wild type) MAATASRTTRFSSSSSHPTFPKRITRSTLPLSHQTLTKPNHALKIKCSISKPPTAAPFTKEAPTTEPFVSRFASGEPRKGADILVEALERQGVTTVFAYPGGASMEIHQALTRSAAIRNVLPRHEQGGVFAAEGYARSSGLPGVCIATSGPGATNLVSGLADALMDSVPVVAITGQVPRRMIGTDAFQETPIVEVSRSITKHNYLILDVDDIPRVVAEAFFVATSGRPGPVLIDIPKDVQQQLAVPNWDEPVNLPGYLARLPRPPAEAQLEHIVRLIMEAQKPVLYVGGGSLNSSAELRRFVELTGIPVASTLMGLGTFPIGDEYSLQMLGMHGTVYANYAVDNSDLLLAFGVRFDDRVTGKLEAFASRAKIVHIDIDSAEIGKNKQAHVSVCADLKLALKGINMILEEKGVEGKFDLGGWREEINVQKHKFPLGYKTFQDAISPQHAIEVLDELTNGDAIVSTGVGQHQMWAAQFYKYKRPRQWLTSGGLGAMGFGLPAAIGAAVANPGAVVVDIDGDGSFIMNVQELATIRVENLPVKILLLNNQHLGMVVQWEDRFYKSNRAHTYLGDPSSESEIFPNMLKFADACGIPAARVTKKEELRAAIQRMLDTPGPYLLDVIVPHQEHVLPMIPSNGSFKDVITEGDGRTRY",Km,[1],3000 µM
same,kcat,[1],0.933 s⁻¹
same,Substrate specificity ratio (Rf),[2],114.0
same,Substrate specificity ratio (Rf),[2]; listed as Glycine max ALS1,~114
same,Substrate specificity ratio (Rf),[2]; listed as wild type enzyme,~114
same,Selectable Marker Activity,[3],not able to act as a selection marker
